Measured values as given in article PMC3121797.
Values joined by “and” are separate entries in the source; they are usually repeats but may differ in a detail not shown here. Identical values can stand only once.

Target: unliganded V1/V2 loop-deleted envelope glycoproteins
Assay: ELISA

C34-Ig fusion protein (from UniProt P04578 628-661) (Fc fusion)
C34-Ig binding without sCD4 as percent of that with sCD4: 20% and 45%
